Here are results for one molecule from paper PMC11864173 (Science Advances, 2025).

This assay has as its target AaRseP(WT)-His8 (Aquifex aeolicus RseP, wild type) (Aquifex aeolicus, UniProt O67776). Briefly: cryo-EM structure.

B1: 4A9 Fab (Fab of the anti-AaRseP mouse monoclonal antibody 4A9), with PA tag (Fab, V domains shown)
VH: EVKLVESGGGLVQPGGSLRLSCVTSGFTFTDYYMSWVRQPPGKALEWLAFIRNKVNGYTTEYRASVKGRFTISRDSSQSILYLQVNTLRAEDSATYYCARDRGGNGVYFDYWGQGTTLTVSS
VL: DIVMTQSHKFMSTSVGDRVSITCKASQDVGTDVAWYQQKPGQSPKLLIYWASIRHTGVPDRFTGSGSGTDFTLTISNVQSEDLADYFCQQYSSYPLTFGAGTKLELE
With B1, the binding result is reported as “binds”.
